Values quoted from earlier work as cited in publication PMC3137898.

Target: syntrophin PDZ (Mus musculus) (UniProt Q61234)
Sequence (Q61234 78-167): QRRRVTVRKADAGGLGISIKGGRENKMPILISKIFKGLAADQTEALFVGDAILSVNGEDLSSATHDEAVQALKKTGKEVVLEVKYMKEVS

Sequence of neuronal nitric oxide synthase PDZ (P29476 14-102): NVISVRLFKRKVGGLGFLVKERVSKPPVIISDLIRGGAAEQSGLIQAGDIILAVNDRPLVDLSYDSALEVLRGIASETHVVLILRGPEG

**Q.** With “neuronal nitric oxide synthase PDZ (from UniProt P29476)” as the substance, how does the Kd read?
**A.** 0.6 µM
